Test results taken from patent publication US6897295 (MOCHIDA PHARMACEUTICAL, dated 2005).

Columns and labels:
[1] = biological target: T1, rat Fas ligand (encoded by clone pTN24-15) (rat, UniProt P36940 1-278); test: flow cytometry on d10S cells, phycoerythrin-labeled streptoavidin
T1 construct: Full-length type II membrane protein of 278 residues; It stood on d10S cells and on COS-7 cells transfected with pTN24-15; It was also used as NP-40 lysate of these cells (immunoprecipitation) and as protein purified from the d10S-12 membrane fraction (about 40 kD); also called Fas ligand on the d10S cells; COS/pTN24-15
T1 sequence: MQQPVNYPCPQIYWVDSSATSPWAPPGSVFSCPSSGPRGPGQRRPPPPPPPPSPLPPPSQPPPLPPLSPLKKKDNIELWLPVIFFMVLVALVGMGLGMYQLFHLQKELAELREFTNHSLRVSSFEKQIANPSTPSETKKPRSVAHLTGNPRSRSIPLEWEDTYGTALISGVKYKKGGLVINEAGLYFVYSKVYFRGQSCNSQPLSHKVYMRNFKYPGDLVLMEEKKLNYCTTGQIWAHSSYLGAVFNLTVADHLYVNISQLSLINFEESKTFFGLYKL
Protocol: PC60-d10S cells (to be referred to as "d10S" hereinafter; Rouvier E. et al., J. Exp. Med., vol. 177, pp. 195–200, 1993) were washed with a staining solution (phosphate-buffered saline (to be referred to as "PBS" hereinafter) containing 2% FCS and 0.02% NaN₃). About 1 ×10^6 of the cells were suspended in 50 μl of the staining solution supplemented with 5 μg/ml of rat anti-mouse FcγRII blocking antibody (Pharmingen). This suspension was dispensed into wells of a 96 well plate and incubated for 10 minutes on an ice bath. A 20 μg/ml solution of the biotinylated mFas-Fc was dispensed into wells of the resulting plate in 50 μl portions, and the incubation was continued for additional 30 minutes on an ice bath. […]
After washing the cells with the staining solution, cytometric analysis was carried out using FACScan (Becton Dickinson). As the result, a slight shift in the fluorescence intensity was observed which confirmed that said cells were stained with the biotinylated mFas-Fc (see FIG. 1(A). Control was expressed as an open area, and staining before 4 hours of treatment with PMA and ionomycin as a stippled area and staining after 4 hours of treatment with PMA and ionomycin as a closed area.

[2] = biological target: T2, human Fas antigen on WC8A / WC8 cells (human, UniProt P25445 26-335); test: concluded from cytotoxicity of the culture supernatant on cells expressing human Fas antigen
T2 construct: whole, on cells
T2 sequence (looked up): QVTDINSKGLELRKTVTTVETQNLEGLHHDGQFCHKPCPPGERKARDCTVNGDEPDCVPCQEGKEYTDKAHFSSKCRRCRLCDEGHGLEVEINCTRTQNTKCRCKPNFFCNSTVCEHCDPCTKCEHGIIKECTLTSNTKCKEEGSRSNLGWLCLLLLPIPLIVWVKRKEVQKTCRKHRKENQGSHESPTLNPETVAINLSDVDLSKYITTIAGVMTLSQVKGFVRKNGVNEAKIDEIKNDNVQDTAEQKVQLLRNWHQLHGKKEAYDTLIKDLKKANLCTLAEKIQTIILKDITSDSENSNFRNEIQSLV

[3] = biological target: T2, human Fas antigen on WC8A / WC8 cells; test: concluded from cytotoxicity on WC8A cells and its inhibition by hFas-Fc and mFas-Fc
Protocol: Cytotoxic activity of recombinant cells was measured in the same manner as described in Inventive Example 8, using the COS-7 cells transformed in the above step (2) as the effector cells and 10^6 cells of WR19L or WC8A as the target cells. The WC8A is a transformant which acquired human Fas antigen-expressing ability through the transformation of mouse WR19L cells (Itoh N. et al., *J. Immunol.*, vol. 151, pp. 621–627, 1993).
The thus ^51Cr-labeled cells (1 ×10^4) were mixed with COS/pEX-hFL1 cells at various mixing ratios and cultured at 37° C. for 4 hours, subsequently measuring cytotoxic activity using released ^51Cr as an index.

[4] = biological target: T3, mouse Fas antigen on W4 cells (mouse, UniProt P25446 22-327); test: concluded from cytotoxicity on W4 cells and its inhibition by mFas-Fc
T3 construct: whole, on cells; also called Fas antigen-expressing W4 cells
T3 sequence (looked up): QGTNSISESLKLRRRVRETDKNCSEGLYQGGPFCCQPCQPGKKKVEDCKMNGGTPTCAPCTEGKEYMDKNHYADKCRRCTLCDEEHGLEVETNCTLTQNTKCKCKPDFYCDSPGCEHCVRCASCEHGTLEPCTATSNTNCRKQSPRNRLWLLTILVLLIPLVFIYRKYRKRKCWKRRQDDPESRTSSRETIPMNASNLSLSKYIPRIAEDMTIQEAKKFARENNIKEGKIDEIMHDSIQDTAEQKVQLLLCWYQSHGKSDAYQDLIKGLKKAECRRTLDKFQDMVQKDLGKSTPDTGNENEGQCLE
Protocol: Cytotoxic activity of recombinant cells was measured in the same manner as described in Inventive Example 8, using the transformed COS cells (COS/pEF-MFLW4F) obtained in the above step (2) as the effector cells and 10^6 cells-of WR19L or W4 as the target cells. The W4 is a transformant which acquired mouse Fas antigen-expressing ability through the transformation of mouse WR19L cells. That is, 10^6 cells of WR19L or W4 were labeled with ^51Cr by culturing the cells at 37° C. for 2 hours in RPMI 1640 medium containing 20 μCi of (^51Cr) sodium chromate (Amersham).
The thus ^51Cr-labeled cells (1×10^4) were mixed with COS/pEF-MFLW4F cells at various mixing ratios and cultured at 37° C. for 4 hours, subsequently measuring cytotoxic activity using released ^51Cr as an index. […] In addition, the cytotoxicity of COS/pEF-MFLW4F cells was inhibited by the addition of 20 μg/ml of the chimera protein containing the extracellular domain of mouse Fas antigen (mFas-Fc) prepared in Inventive Example 1, but was not inhibited by the addition of the soluble type human TNF receptor (hTNFRβ-Fc).

B1: chimera protein of the extracellular domain of mouse Fas (mFas) antigen and the Fc region of human IgG1 (hIgG1) (Fc fusion, UniProt P25446 22-169, looked up)
chain: QGTNSISESLKLRRRVRETDKNCSEGLYQGGPFCCQPCQPGKKKVEDCKMNGGTPTCAPCTEGKEYMDKNHYADKCRRCTLCDEEHGLEVETNCTLTQNTKCKCKPDFYCDSPGCEHCVRCASCEHGTLEPCTATSNTNCRKQSPRNR
modifications: biotinylated with NHS-LC-biotin in the flow cytometry; unlabelled in the other assays
notes: extracellular domain; Made from plasmid pFas-FcII in COS-7 or BTS-1 cells; also called mFas-Fc; biotinylated mFas-Fc; not shown: human IgG1 heavy chain constant region: hinge, CH2 and CH3 domains
Q: Does B1 bind [1]?
A: Result: binds

B2: extracellular domain of the human Fas ligand secreted by transformant COS-1/pM1070 (ligand)
chain: QLFHLQKELAELRESTSQMHTASSLEKQIGHPSPPPEKKELRKVAHLTGKSNSRSMPLEWEDTYGIVLLSGVKYKKGGLVINETGLYFVYSKVYFRGQSCNNLPLSHKVYMRNSKYPQDLVMMEGKMMSYCTTGQMWARSSYLGAVFNLTSADHLYVNVSELSLVNFEESQTFFGLYKL
notes: Expressed behind the signal peptide of the human Fas antigen, which is not counted here; Tested as culture supernatant; also called culture supernatant of COS-1/pM1070
Q: Does B2 bind [2]?
A: Result: binds

B3: human Fas ligand (encoded by pEX-hFL1) (ligand)
chain: MQQPFNYPYPQIYWVDSSASSPWAPPGTVLPCPTSVPRRPGQRRPPPPPPPPPLPPPPPPPPLPPLPLPPLKKRGNHSTGLCLLVMFFMVLVALVGLGLGMFQLFHLQKELAELRESTSQMHTASSLEKQIGHPSPPPEKKELRKVAHLTGKSNSRSMPLEWEDTYGIVLLSGVKYKKGGLVINETGLYFVYSKVYFRGQSCNNLPLSHKVYMRNSKYPQDLVMMEGKMMSYCTTGQMWARSSYLGAVFNLTSADHLYVNVSELSLVNFEESQTFFGLYKL
notes: Full-length protein on COS-7 cells (COS/pEX-hFL1) or FDC-P1 cells (FLh1); In the western blots it stood as reduced SDS extract of the transfected COS cells; also called COS/pEX-hFL1; human Fas ligand-expressing COS cells
Q: Does B3 bind [3]?
A: Result: binds

B4: mouse Fas ligand (encoded by pEF-MFLW4) (ligand)
chain: MQQPMNYPCPQIFWVDSSATSSWAPPGSVFPCPSCGPRGPDQRRPPPPPPPVSPLPPPSQPLPLPPLTPLKKKDHNTNLWLPVVFFMVLVALVGMGLGMYQLFHLQKELAELREFTNQSLKVSSFEKQIANPSTPSEKKEPRSVAHLTGNPHSRSIPLEWEDTYGTALISGVKYKKGGLVINETGLYFVYSKVYFRGQSCNNQPLNHKVYMRNSKYPEDLVLMEEKRLNYCTTGQIWAHSSYLGAVFNLTSADHLYVNISQLSLINFEESKTFFGLYKL
notes: Full-length protein of 279 residues on transfected COS cells; In the western blots it stood as reduced SDS extract of these cells; also called COS/pEF-MFLW4F
Q: Does B4 bind [4]?
A: Result: binds

B5: chimera protein of TNF receptor beta and Fc region of human IgG1 (Fc fusion, UniProt P19438 30-211, looked up)
chain: LVPHLGDREKRDSVCPQGKYIHPQNNSICCTKCHKGTYLYNDCPGPGQDTDCRECESGSFTASENHLRHCLSCSKCRKEMGQVEISSCTVDRDTVCGCRKNQYRHYWSENLFQCFNCSLCLNGTVHLSCQEKQNTVCTCHAGFFLRENECVSCSNCKKSLECTKLCLPQIENVKGTEDSGTT
modifications: biotinylated with NHS-LC-biotin in the flow cytometry; unlabelled in the cytotoxicity assays
notes: extracellular domain; Control fusion protein; also called hTNFRβ-Fc; soluble type human TNF receptor; not shown: human IgG1 Fc region (hinge, CH2, CH3, as in pFas-FcII)
Q: Does B5 bind [1]?
A: Result: no binding
